Experimental data published in patent publication US20090317363A1.
Numbering of substitutions follows the chain as printed.

B1: RANTES derivative: signature sequence SEQ ID NO: 4 fused to positions 10-68 of native RANTES (SEQ ID NO: 1) (ligand)
chain: QGPPLMWLQVCCFAYIARPLPRAHIKEYFYTSGKCSNPAVVFVTRKNRQVCANPEKKWVREYINSLEMS
B2: RANTES derivative: signature sequence SEQ ID NO: 39 fused to positions 10-68 of native RANTES (SEQ ID NO: 1) (ligand)
chain: B1 chain with M6S, L8S
B3: RANTES derivative: signature sequence SEQ ID NO: 51 fused to positions 10-68 of native RANTES (SEQ ID NO: 1) (ligand)
chain: B1 chain with M6Q, L8T
B4: RANTES derivative: signature sequence SEQ ID NO: 50 fused to positions 10-68 of native RANTES (SEQ ID NO: 1) (ligand)
chain: B1 chain with M6Q, L8F
B5: RANTES derivative: signature sequence SEQ ID NO: 38 fused to positions 10-68 of native RANTES (SEQ ID NO: 1) (ligand)
chain: B1 chain with W7Q
B6: RANTES derivative: signature sequence SEQ ID NO: 41 fused to positions 10-68 of native RANTES (SEQ ID NO: 1) (ligand)
chain: B1 chain with W7N
B7: RANTES derivative: signature sequence SEQ ID NO: 30 fused to positions 10-68 of native RANTES (SEQ ID NO: 1) (ligand)
chain: B1 chain with M6S
B8: RANTES derivative: signature sequence SEQ ID NO: 49 fused to positions 10-68 of native RANTES (SEQ ID NO: 1) (ligand)
chain: B1 chain with P4L, L5G, M6Q, W7Q, L8G
B9: RANTES derivative: signature sequence SEQ ID NO: 43 fused to positions 10-68 of native RANTES (SEQ ID NO: 1) (ligand)
chain: B1 chain with L5M, M6Q, W7G, L8G, Q9L, V10S
B10: RANTES derivative: signature sequence SEQ ID NO: 57 fused to positions 10-68 of native RANTES (SEQ ID NO: 1) (ligand)
chain: B1 chain with W7G, Q9S
B11: RANTES derivative: signature sequence SEQ ID NO: 35 fused to positions 10-68 of native RANTES (SEQ ID NO: 1) (ligand)
chain: B1 chain with L5G, L8S, V10S
B12: RANTES derivative: signature sequence SEQ ID NO: 53 fused to positions 10-68 of native RANTES (SEQ ID NO: 1) (ligand)
chain: B1 chain with L8S
B13: RANTES derivative: signature sequence SEQ ID NO: 55 fused to positions 10-68 of native RANTES (SEQ ID NO: 1) (ligand)
chain: B1 chain with L5G, M6S, L8S
B14: RANTES derivative: signature sequence SEQ ID NO: 46 fused to positions 10-68 of native RANTES (SEQ ID NO: 1) (ligand)
chain: B1 chain with P4L, L5S, M6G, L8A
B15: RANTES derivative: signature sequence SEQ ID NO: 42 fused to positions 10-68 of native RANTES (SEQ ID NO: 1) (ligand)
chain: B1 chain with L5M, M6S, W7A, L8Y
B16: RANTES derivative: signature sequence SEQ ID NO: 54 fused to positions 10-68 of native RANTES (SEQ ID NO: 1) (ligand)
chain: B1 chain with L5G, M6Q, L8G
B17: RANTES derivative: signature sequence SEQ ID NO: 34 fused to positions 10-68 of native RANTES (SEQ ID NO: 1) (ligand)
chain: B1 chain with M6S, L8Q, V10S
B18: RANTES derivative: signature sequence SEQ ID NO: 45 fused to positions 10-68 of native RANTES (SEQ ID NO: 1) (ligand)
chain: B1 chain with W7S, Q9T
B19: RANTES derivative: signature sequence SEQ ID NO: 44 fused to positions 10-68 of native RANTES (SEQ ID NO: 1) (ligand)
chain: B1 chain with W7S, Q9A
B20: RANTES derivative: signature sequence SEQ ID NO: 36 fused to positions 10-68 of native RANTES (SEQ ID NO: 1) (ligand)
chain: B1 chain with M6Q, L8R, V10S
B21: RANTES derivative: signature sequence SEQ ID NO: 37 fused to positions 10-68 of native RANTES (SEQ ID NO: 1) (ligand)
chain: B1 chain with W7G, L8T, V10S
B22: RANTES derivative: signature sequence SEQ ID NO: 52 fused to positions 10-68 of native RANTES (SEQ ID NO: 1) (ligand)
chain: B1 chain with W7A, Q9S
B23: RANTES derivative: signature sequence SEQ ID NO: 6 fused to positions 10-68 of native RANTES (SEQ ID NO: 1) (ligand)
chain: B1 chain with V10T
B24: RANTES derivative: signature sequence SEQ ID NO: 40 fused to positions 10-68 of native RANTES (SEQ ID NO: 1) (ligand)
chain: B1 chain with L5M, M6S, L8S, V10S
B25: RANTES derivative: signature sequence SEQ ID NO: 58 fused to positions 10-68 of native RANTES (SEQ ID NO: 1) (ligand)
chain: B1 chain with W7T
B26: RANTES derivative: signature sequence SEQ ID NO: 48 fused to positions 10-68 of native RANTES (SEQ ID NO: 1) (ligand)
chain: B1 chain with P4L, L5S, M6S, W7Q, L8S
B27: RANTES derivative: signature sequence SEQ ID NO: 32 fused to positions 10-68 of native RANTES (SEQ ID NO: 1) (ligand)
chain: B1 chain with L5G, M6Q, L8S
B28: RANTES derivative: signature sequence SEQ ID NO: 31 fused to positions 10-68 of native RANTES (SEQ ID NO: 1) (ligand)
chain: B1 chain with M6S, V10S
B29: RANTES derivative: signature sequence SEQ ID NO: 59 fused to positions 10-68 of native RANTES (SEQ ID NO: 1) (ligand)
chain: B1 chain with L5G, M6Q, L8Y, V10S
B30: RANTES derivative: signature sequence SEQ ID NO: 47 fused to positions 10-68 of native RANTES (SEQ ID NO: 1) (ligand)
chain: B1 chain with P4L, L5S, M6Q, W7S, L8S
B31: RANTES derivative: signature sequence SEQ ID NO: 56 fused to positions 10-68 of native RANTES (SEQ ID NO: 1) (ligand)
chain: B1 chain with W7S, L8S, V10S
B32: RANTES derivative: signature sequence SEQ ID NO: 5 fused to positions 10-68 of native RANTES (SEQ ID NO: 1) (ligand)
chain: B1 chain with L8T, V10S
B33: RANTES derivative: signature sequence SEQ ID NO: 33 fused to positions 10-68 of native RANTES (SEQ ID NO: 1) (ligand)
chain: B1 chain with L5M, W7A, L8G, Q9L, V10S

Molecular target: CCR5 (UniProt P51681)
Experiment: cell-based or functional assay

Row | Binder | CCR5 sequestration (%) (% of control surface CCR5) | CCR5 signalling (%) (% of Emax of PSC-RANTES) | anti-HIV potency (IC50, nM) by cell fusion assay [nM] | anti-HIV potency (IC50, nM) by viral replication assay [nM]
1 | B1 | 3 | 4.6 | 0.02 | 0.38
2 | B2 | 5 | 1.7 | 0.1 | 
3 | B3 | 12 | 5 | 0.02 | 
4 | B4 | 11 | 7.6 | 0.02 | 
5 | B5 | 3 | 0.3 | 0.1 | 
6 | B6 | 9 | 0 | 0.12 | 
7 | B7 | 4 | 4.1 | 0.01 | 
8 | B8 | 77 | 97.2 | 0.74 | 
9 | B9 | 4 | 0.3 | 0.29 | 
10 | B10 | 18 | 4.9 | 0.16 | 
11 | B11 | 5 | 4.9 | 0.05 | 
12 | B12 | 16 | 5.1 | 0.02 | 
13 | B13 | 33 | 7.3 | 0.07 | 
14 | B14 | 72 | 97.6 | 0.4 | 
15 | B15 | 0 | 0.2 | 0.16 | 
16 | B16 | 12 | 2.1 | 0.06 | 
17 | B17 | 8 | 5.1 | 0.03 | 

Row | Binder | CCR5 sequestration (%) (% of control surface CCR5) | CCR5 signalling (%) (% of Emax of PSC-RANTES) | anti-HIV potency (IC50, nM) by cell fusion assay [nM] | anti-HIV potency (IC50, nM) by viral replication assay [nM]
18 | B18 | 62 | 77.4 | 0.02 | 
19 | B19 | 60 | 68.5 | 0.02 | 
20 | B20 | 7 | 5.1 | 0.05 | 
21 | B21 | 5 | 0.7 | 0.09 | 
22 | B22 | 11 | 8.3 | 0.02 | 
23 | B23 | 3 | 1.4 | 0.02 | 289
24 | B24 | 6 | 0 | 0.11 | 
25 | B25 | 25 | 0.7 | 0.23 | 
26 | B26 | 78 | 100 | 0.64 | 
27 | B27 | 5 | 6 | 0.03 | 
28 | B28 | 6 | 3.6 | 0.02 | 
29 | B29 | 15 | 6 | 0.23 | 
30 | B30 | 78 | 96.9 | 0.44 | 
31 | B31 | 15 | 7.5 | 0.15 | 
32 | B32 | 0 | 5.3 | 0.02 | 0.576
33 | B33 | 0 | 0.2 | 0.03 | 
